Measurements as given in publication PMC5408928.

Molecular target: yeast 80S ribosome (S. cerevisiae)
Experiment: crystal structure

eIF5A-occupancy refinement (%)	Substance
97	hypusinated eIF5A from Saccharomyces cerevisiae (from UniProt P23301 1-157) (natural protein)
88	unmodified eIF5A from S. cerevisiae (from UniProt P23301 1-157) (natural protein)
